Assay results reported in the Immune Epitope Database (IEDB).

Tests used:
HLA-B*35:01 [1] = test: IEDB peptide-MHC binding, purified MHC/direct/fluorescence; filed as Kd, often an IC50 or EC50 that approximates it; ≥ and ≤ were set here for values at or beyond the usual limits of such assays
HLA-B*46:01 = test: IEDB peptide-MHC binding, purified MHC/competitive/fluorescence; filed as Kd, often an IC50 or EC50 that approximates it; ≥ and ≤ were set here for values at or beyond the usual limits of such assays
HLA-A*24:03 = test: IEDB peptide-MHC binding, purified MHC/direct/fluorescence; filed as Kd, often an IC50 or EC50 that approximates it; ≥ and ≤ were set here for values at or beyond the usual limits of such assays
HLA-A*02:19 = test: as above
HLA-A*03:01 [2] = test: as above
HLA-A*29:02 = test: as above
HLA-A*02:11 = test: as above
HLA-A*02:03 = test: as above
HLA-A*02:16 = test: as above
HLA-A*68:02 [3] = test: as above
HLA-A*02:12 = test: as above
HLA-A*23:01 = test: as above
HLA-A*03:01 [4] = test: IEDB peptide-MHC binding, purified MHC/competitive/fluorescence; ≥ and ≤ were set here for values at or beyond the usual limits of such assays; details: source organism: Zaire ebolavirus
HLA-A*11:01 [5] = test: as above; details: source organism: Zaire ebolavirus
HLA-A*02:01 [6] = test: as above; details: source organism: Zaire ebolavirus
HLA-B*15:01 [7] = test: IEDB peptide-MHC binding, purified MHC/competitive/fluorescence; filed as Kd, often an IC50 or EC50 that approximates it; ≥ and ≤ were set here for values at or beyond the usual limits of such assays
HLA-B*39:01 = test: as above
HLA-A*26:01 [8] = test: as above
HLA-B*51:01 = test: as above
HLA-B*15:17 = test: as above
HLA-A*69:01 [9] = test: as above
HLA-B*57:01 = test: as above
HLA-B*27:03 = test: as above; details: source organism: Zaire ebolavirus
HLA-B*18:01 = test: as above
HLA-A*02:01 [10] = test: as above
HLA-B*27:05 = test: IEDB peptide-MHC binding, purified MHC/direct/fluorescence; filed as Kd, often an IC50 or EC50 that approximates it; ≥ and ≤ were set here for values at or beyond the usual limits of such assays
HLA-A*01:01 = test: as above
HLA-B*15:01 [11] = test: as above
HLA-B*44:02 = test: as above
HLA-A*26:01 [12] = test: as above
HLA-A*31:01 = test: as above
HLA-B*40:01 = test: as above
HLA-B*58:01 = test: as above
HLA-A*11:01 [13] = test: as above
HLA-B*08:01 [14] = test: as above
HLA-A*69:01 [15] = test: as above
HLA-A*02:01 [16] = test: as above
HLA-B*07:02 = test: as above
HLA-A*02:06 = test: IEDB peptide-MHC binding, purified MHC/competitive/fluorescence; filed as Kd, often an IC50 or EC50 that approximates it; ≥ and ≤ were set here for values at or beyond the usual limits of such assays; details: source organism: Influenza A virus (A/duck/Hong Kong/3096/99(H6N2))
HLA-A*26:02 = test: as above; details: source organism: Influenza A virus (A/duck/Hong Kong/3096/99(H6N2))
HLA-B*08:01 [17] = test: as above; details: source organism: Influenza A virus (A/duck/Hong Kong/3096/99(H6N2))
HLA-A*68:02 [18] = test: as above; details: source organism: Influenza A virus (A/duck/Hong Kong/3096/99(H6N2))
HLA-B*35:01 [19] = test: as above; details: source organism: Influenza A virus (A/duck/Hong Kong/3096/99(H6N2))
[20] = source organism: Zaire ebolavirus
[21] = source organism: Escherichia coli O157:H7
[22] = source organism: Influenza A virus (A/tiger/Thailand/CU-T4/04(H5N1))
[23] = source organism: Influenza A virus(A/swine/Shandong/fZC/2003(H9N2))
[24] = source organism: Influenza A virus (A/duck/Hong Kong/3096/99(H6N2))
[25] = source organism: Coxiella burnetii

FAAWIQQTY
0.125 µM: Kd (HLA-B*46:01; source organism: Vibrio parahaemolyticus AN-5034)
10 nM: Kd (HLA-B*35:01 [1]; source organism: Vibrio parahaemolyticus RIMD 2210633)

FLILPQAKK
4.4 µM: IC50 (HLA-A*03:01 [4])
1670 nM: IC50 (HLA-A*11:01 [5])
≥ 20 µM: Kd (HLA-A*24:03; [20]) | Kd (HLA-A*02:19; [20]) | Kd (HLA-A*03:01 [2]; [20]) | Kd (HLA-A*29:02; [20]) | Kd (HLA-A*02:11; [20]) | Kd (HLA-A*02:03; [20]) | Kd (HLA-A*02:16; [20]) | Kd (HLA-A*68:02 [3]; [20]) | Kd (HLA-A*02:12; [20]) | Kd (HLA-A*23:01; [20]) | Kd (HLA-B*15:01 [7]; [20]) | Kd (HLA-B*39:01; [20]) | Kd (HLA-A*26:01 [8]; [20]) | Kd (HLA-B*51:01; [20]) | Kd (HLA-B*15:17; [20]) | Kd (HLA-A*69:01 [9]; [20]) | Kd (HLA-B*57:01; [20]) | Kd (HLA-B*46:01; [20]) | Kd (HLA-B*27:03) | Kd (HLA-B*18:01; [20]) | Kd (HLA-A*02:01 [10]; [20])
64.7 µM: IC50 (HLA-A*02:01 [6])

GRFQEALKK
0.0717 µM: Kd (HLA-B*27:05; source organism: Orthohantavirus andesense)
≥ 20 µM: Kd (HLA-A*24:03; source organism: Choclo virus) | Kd (HLA-A*02:19; source organism: Choclo virus) | Kd (HLA-A*03:01 [2]; source organism: Choclo virus) | Kd (HLA-A*29:02; source organism: Choclo virus) | Kd (HLA-A*02:11; source organism: Choclo virus) | Kd (HLA-A*02:03; source organism: Choclo virus) | Kd (HLA-A*02:16; source organism: Choclo virus) | Kd (HLA-A*68:02 [3]; source organism: Choclo virus) | Kd (HLA-A*02:12; source organism: Choclo virus) | Kd (HLA-A*23:01; source organism: Choclo virus) | Kd (HLA-B*15:01 [7]; source organism: Choclo virus) | Kd (HLA-B*39:01; source organism: Choclo virus) | Kd (HLA-A*26:01 [8]; source organism: Choclo virus) | Kd (HLA-B*51:01; source organism: Choclo virus) | Kd (HLA-B*15:17; source organism: Choclo virus) | Kd (HLA-A*69:01 [9]; source organism: Choclo virus) | Kd (HLA-B*57:01; source organism: Choclo virus) | Kd (HLA-B*46:01; source organism: Choclo virus) | Kd (HLA-B*18:01; source organism: Choclo virus) | Kd (HLA-A*02:01 [10]; source organism: Choclo virus)

IRNPPMVVF
≥ 20 µM: Kd (HLA-A*01:01; [21]) | Kd (HLA-B*15:01 [11]; [21]) | Kd (HLA-A*03:01 [2]; [21]) | Kd (HLA-B*44:02; [21]) | Kd (HLA-A*26:01 [12]; [21]) | Kd (HLA-A*31:01; [21]) | Kd (HLA-B*40:01; [21]) | Kd (HLA-B*58:01; [21]) | Kd (HLA-A*11:01 [13]; [21]) | Kd (HLA-B*08:01 [14]; [21]) | Kd (HLA-A*69:01 [15]; [21])
≥ 10000 nM: Kd (HLA-B*35:01 [1]; [21])
≥ 20000 nM: Kd (HLA-A*02:01 [16]; [21])
3.25 µM: Kd (HLA-B*27:05; [21])

TMLYNKMEF
3000 nM: Kd (HLA-B*08:01 [17])
0.0114 µM: Kd (HLA-A*24:03; [22])
0.157 µM: Kd (HLA-A*02:11; [23])
0.047 µM: Kd (HLA-A*23:01; [22])
604 nM: Kd (HLA-A*02:01 [16]; [22])
≥ 5 µM: Kd (HLA-A*02:19; [23])
≥ 20 µM: Kd (HLA-A*01:01; [22]) | Kd (HLA-A*03:01 [2]; [22]) | Kd (HLA-A*26:01 [12]; [23]) | Kd (HLA-A*31:01; [22]) | Kd (HLA-B*58:01; [22]) | Kd (HLA-A*11:01 [13]; [22]) | Kd (HLA-A*02:03; [23]) | Kd (HLA-B*27:05; [22]) | Kd (HLA-B*07:02; [22]) | Kd (HLA-B*39:01; [24]) | Kd (HLA-A*26:02) | Kd (HLA-B*57:01; [24]) | Kd (HLA-B*46:01; [24])
4.44 µM: Kd (HLA-A*68:02 [18])
312 nM: Kd (HLA-A*02:06)
3.47 µM: Kd (HLA-A*02:12; [23])
1260 nM: Kd (HLA-B*35:01 [19])
0.118 µM: Kd (HLA-B*15:01 [11]; source organism: Influenza A virus (A/Puerto Rico/8/34/Mount Sinai(H1N1)))
0.311 µM: Kd (HLA-B*15:17; [24])

WAPEGDIRL
899 nM: Kd (HLA-B*35:01 [1]; [25])
4.29 µM: Kd (HLA-B*07:02; [25])
330 nM: Kd (HLA-A*02:01 [16]; [25])
≥ 20 µM: Kd (HLA-A*24:03; [25]) | Kd (HLA-A*01:01; [25]) | Kd (HLA-B*15:01 [11]; [25]) | Kd (HLA-A*03:01 [2]; [25]) | Kd (HLA-B*44:02; [25]) | Kd (HLA-A*26:01 [12]; [25]) | Kd (HLA-A*31:01; [25]) | Kd (HLA-B*40:01; [25]) | Kd (HLA-B*58:01; [25]) | Kd (HLA-A*11:01 [13]; [25]) | Kd (HLA-B*08:01 [14]; [25]) | Kd (HLA-A*69:01 [15]; [25]) | Kd (HLA-B*27:05; [25])
